Test results from the supplement of paper PMC10567573.

B1: TRAF3IP2 (parent)
chain: YGHDYPRAAYQQVIQPALPGQPLP

Variants of: B1
Experiment: protein stability index of a GFP-peptide fusion (GPS, HEK-293T) (PSI 1-6); higher = more stable
Settings: c terminus: a fixed tail appended
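Further: lentivirally expressed fusions sorted by FACS into six bins by GFP to DsRed ratio, PSI derived from sequencing read proportions per bin multiplied by bin number.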

Compared with YGHDYPRAAYQQVIQPAPPGQPLP [L18P], YGHDYPRAAYQQVIQPATPGQPLP [L18T] is lower in protein stability index: 1.82 for the first, 1.76 for the second.

Compared with YGHDYPRAAYQQVIQPAYPGQPLP [L18Y], YGHDYPRAAYQQVIQPACPGQPLP [L18C] is lower in protein stability index: 2.26 for the first, 1.86 for the second.

First: YGHDYPRAAYQQVIQPASPGQPLP [L18S]
Second: YGHDYPRAAYQQVIQPAKPGQPLP [L18K]
The protein stability index of the first is lower: 1.6 for the first, 2.15 for the second.

Going from YGHDYPRAATQQVIQPALPGQPLP [Y10T] to YGHDYPRAAKQQVIQPALPGQPLP [Y10K], the protein stability index rises from 1.97 to 2.36.

First: YGHDYPRAALQQVIQPALPGQPLP [Y10L]
Second: YGHDYPRAAIQQVIQPALPGQPLP [Y10I]
The protein stability index of the first is lower: 2 for the first, 2.02 for the second.

First: YGHDYPRAAQQQVIQPALPGQPLP [Y10Q]
Second: YGHDYPRAAPQQVIQPALPGQPLP [Y10P]
The protein stability index of the first is lower: 2.07 for the first, 2.28 for the second.

Going from YGHDYPRAASQQVIQPALPGQPLP [Y10S] to YGHDYPRAAMQQVIQPALPGQPLP [Y10M], the protein stability index falls from 1.75 to 1.65.

First: YGHDYPRAANQQVIQPALPGQPLP [Y10N]
Second: YGHDYPRAARQQVIQPALPGQPLP [Y10R]
The protein stability index of the first is higher: 1.85 for the first, 1.7 for the second.

Going from YGHDYPRAAVQQVIQPALPGQPLP [Y10V] to YGHDYPRAAWQQVIQPALPGQPLP [Y10W], the protein stability index falls from 2.13 to 1.75.

Going from YGHDYPRAAYQIVIQPALPGQPLP [Q12I] to YGHDYPRAAYQKVIQPALPGQPLP [Q12K], the protein stability index falls from 2.59 to 2.37.

First: YGHDYPRAAYQMVIQPALPGQPLP [Q12M]
Second: YGHDYPRAAYQTVIQPALPGQPLP [Q12T]
The protein stability index of the first is higher: 3.06 for the first, 1.7 for the second.

Going from YGHDYPRAAYQNVIQPALPGQPLP [Q12N] to YGHDYPRAAYQAVIQPALPGQPLP [Q12A], the protein stability index rises from 1.65 to 1.96.

First: YGHDYPRAAYQDVIQPALPGQPLP [Q12D]
Second: YGHDYPRAAYQLVIQPALPGQPLP [Q12L]
The protein stability index of the first is lower: 1.58 for the first, 1.98 for the second.

Compared with YGHDYPRAAYQYVIQPALPGQPLP [Q12Y], YGHDYPRAAYQPVIQPALPGQPLP [Q12P] is higher in protein stability index: 2.61 for the first, 3.46 for the second.

First: YGHDYPRAAYQCVIQPALPGQPLP [Q12C]
Second: YGHDYPRAAYQEVIQPALPGQPLP [Q12E]
The protein stability index of the first is higher: 3.07 for the first, 1.48 for the second.

Going from YGHDYPRAAYQHVIQPALPGQPLP [Q12H] to YGHDYPRAAYQWVIQPALPGQPLP [Q12W], the protein stability index rises from 2.01 to 2.41.

First: YGHDYPRAAYQRVIQPALPGQPLP [Q12R]
Second: YGHDYPRAAYQVVIQPALPGQPLP [Q12V]
The protein stability index of the first is lower: 2.17 for the first, 3.04 for the second.

Compared with YGHDYPRAAYQSVIQPALPGQPLP [Q12S], YGHDYPRAAYQFVIQPALPGQPLP [Q12F] is higher in protein stability index: 2.13 for the first, 2.56 for the second.

Going from YGHDYPRAAYQGVIQPALPGQPLP [Q12G] to YGHDYPRAAYQQVKQPALPGQPLP [I14K], the protein stability index falls from 2.79 to 2.31.

First: YGHDYPRAAYQQVSQPALPGQPLP [I14S]
Second: YGHDYPRAAYQQVTQPALPGQPLP [I14T]
The protein stability index of the first is higher: 2.09 for the first, 1.86 for the second.

Going from YGHDYPRAAYQQVNQPALPGQPLP [I14N] to YGHDYPRAAYQQVYQPALPGQPLP [I14Y], the protein stability index rises from 1.92 to 2.52.

First: YGHDYPRAAYQQVGQPALPGQPLP [I14G]
Second: YGHDYPRAAYQQVHQPALPGQPLP [I14H]
The protein stability index of the first is higher: 1.92 for the first, 1.88 for the second.

Going from YGHDYPRAAYQQVQQPALPGQPLP [I14Q] to YGHDYPRAAYQQVRQPALPGQPLP [I14R], the protein stability index falls from 1.75 to 1.74.

Compared with YGHDYPRAAYQQVFQPALPGQPLP [I14F], YGHDYPRAAYQQVWQPALPGQPLP [I14W] is higher in protein stability index: 2.01 for the first, 2.33 for the second.

Going from YGHDYPRAAYQQVCQPALPGQPLP [I14C] to YGHDYPRAAYQQVLQPALPGQPLP [I14L], the protein stability index falls from 2.49 to 1.77.

Compared with YGHDYPRAAYQQVDQPALPGQPLP [I14D], YGHDYPRAAYQQVAQPALPGQPLP [I14A] is higher in protein stability index: 1.22 for the first, 1.5 for the second.

Compared with YGHDYPRAAYQQVMQPALPGQPLP [I14M], YGHDYPRAAYQQVVQPALPGQPLP [I14V] is higher in protein stability index: 1.49 for the first, 1.67 for the second.

First: YGHDYPRAAYQQVPQPALPGQPLP [I14P]
Second: YGHDYPRAAYQQVEQPALPGQPLP [I14E]
The protein stability index of the first is higher: 2.14 for the first, 2 for the second.

Compared with YGHDYPRAAYNQVIQPALPGQPLP [Q11N], YGHDYPRAAYEQVIQPALPGQPLP [Q11E] is higher in protein stability index: 1.96 for the first, 2.09 for the second.

Compared with YGHDYPRAAYVQVIQPALPGQPLP [Q11V], YGHDYPRAAYSQVIQPALPGQPLP [Q11S] is lower in protein stability index: 2.31 for the first, 2.15 for the second.

Compared with YGHDYPRAAYMQVIQPALPGQPLP [Q11M], YGHDYPRAAYPQVIQPALPGQPLP [Q11P] is higher in protein stability index: 1.65 for the first, 1.69 for the second.

Going from YGHDYPRAAYLQVIQPALPGQPLP [Q11L] to YGHDYPRAAYIQVIQPALPGQPLP [Q11I], the protein stability index falls from 3.77 to 2.94.

First: YGHDYPRAAYGQVIQPALPGQPLP [Q11G]
Second: YGHDYPRAAYCQVIQPALPGQPLP [Q11C]
The protein stability index of the first is lower: 1.79 for the first, 3.05 for the second.

Going from YGHDYPRAAYTQVIQPALPGQPLP [Q11T] to YGHDYPRAAYYQVIQPALPGQPLP [Q11Y], the protein stability index falls from 3.14 to 2.52.

Compared with YGHDYPRAAYRQVIQPALPGQPLP [Q11R], YGHDYPRAAYKQVIQPALPGQPLP [Q11K] is higher in protein stability index: 1.59 for the first, 2.24 for the second.

Going from YGHDYPRAAYWQVIQPALPGQPLP [Q11W] to YGHDYPRAAYFQVIQPALPGQPLP [Q11F], the protein stability index rises from 1.94 to 3.98.

First: YGHDYPRAAYAQVIQPALPGQPLP [Q11A]
Second: YGHDYPRAAYDQVIQPALPGQPLP [Q11D]
The protein stability index of the first is higher: 2.75 for the first, 2.05 for the second.

Going from YGHDYPRAAYHQVIQPALPGQPLP [Q11H] to YGHDYPRAAYQQVIQCALPGQPLP [P16C], the protein stability index falls from 2.48 to 2.35.

Compared with YGHDYPRAAYQQVIQRALPGQPLP [P16R], YGHDYPRAAYQQVIQDALPGQPLP [P16D] is higher in protein stability index: 1.71 for the first, 2.22 for the second.

Compared with YGHDYPRAAYQQVIQVALPGQPLP [P16V], YGHDYPRAAYQQVIQAALPGQPLP [P16A] is lower in protein stability index: 3.03 for the first, 1.94 for the second.

Compared with YGHDYPRAAYQQVIQLALPGQPLP [P16L], YGHDYPRAAYQQVIQNALPGQPLP [P16N] is higher in protein stability index: 1.39 for the first, 1.95 for the second.

Going from YGHDYPRAAYQQVIQFALPGQPLP [P16F] to YGHDYPRAAYQQVIQKALPGQPLP [P16K], the protein stability index falls from 2.74 to 2.48.

Going from YGHDYPRAAYQQVIQWALPGQPLP [P16W] to YGHDYPRAAYQQVIQGALPGQPLP [P16G], the protein stability index falls from 3.06 to 1.54.

Going from YGHDYPRAAYQQVIQSALPGQPLP [P16S] to YGHDYPRAAYQQVIQTALPGQPLP [P16T], the protein stability index rises from 1.39 to 2.27.

Compared with YGHDYPRAAYQQVIQEALPGQPLP [P16E], YGHDYPRAAYQQVIQYALPGQPLP [P16Y] is higher in protein stability index: 2.25 for the first, 2.81 for the second.

Going from YGHDYPRAAYQQVIQHALPGQPLP [P16H] to YGHDYPRAAYQQVIQQALPGQPLP [P16Q], the protein stability index rises from 1.57 to 2.03.

Compared with YGHDYPRAAYQQVIQIALPGQPLP [P16I], YGHDYPRAAYQQVIQMALPGQPLP [P16M] is lower in protein stability index: 2.79 for the first, 1.89 for the second.
